Assay results from US20240132595A1.

Key:
[1] = molecular target: canine MHC Class I DLA-12 antigen (canine (Canis lupus familiaris)); assay: flow cytometry on cells of CLBL-1 xenograft tumours (PBS group) [B]
[2] = molecular target: canine MHC Class I DLA-12 antigen (canine (Canis lupus familiaris)); assay: flow cytometry on canine PBMCs [E]

Binder | FL1-H (percent of cells in the positive gate) [1] [%] | FITC-H subset (percent of cells in the positive gate) [2] [%] | FITC-A (percent of cells in the positive gate) [1] [%]
cLy-m10C5 (antibody, V domains shown) VH: EVQLQQSGPELVKPGASVKISCKASGYTFTDYNMHWVKQSHGKSLEWIGYIYPYNGGTDYNQKFKSKATLTVDNSSSTAYMELRSLTSDDSTVYYCARGGLVGAMDYWGQGTSVTVSS VL: DIQMTQSPASLSASVGETVTITCRASGNIHNSLAWYQQKQGKSPQLLVYNAKTLPDGVPSRFSGSGSGTQYSLKINSLQPEDFGSYYCQHFWSIPWTFGGGTKLEIK | 89.4 | 59.4 | –
cLy-c10C5 (antibody, V domains shown) VH: EVQLQQSGPELVKPGASVKISCKASGYTFTDYNMHWVKQSHGKSLEWIGYIYPYNGGTDYNQKFKSKATLTVDNSSSTAYMELRSLTSDDSTVYYCARGGLVGAMDYWGQGTSVTVSS VL: DIQMTQSPASLSASVGETVTITCRASGNIHNSLAWYQQKQGKSPQLLVYNAKTLPDGVPSRFSGSGSGTQYSLKINSLQPEDFGSYYCQHFWSIPWTFGGGTKLEIK | – | – | 98.7
